Test results as given in article PMC8490722 (Frontiers in Immunology, 2021).

Molecular target: T1, SARS-CoV S1 subunit (SARS-CoV WH20 (AAX16192.1), UniProt Q5DIC5)
T1 construct: source: bought: Sino Biological
Test: western blotting
Details: one partner purified

B1: mAb 12C10 (antibody, V domains shown)
VH: EVKLQESGGGLVKPGGSLKLSCAASGFTFSNYSMSWVRQTPEKRLEWVATISNGGGYIYYLDSVKGRFTISRDNAKNTLYLQMSSLRSEDTAMYYCGRPRPEKEFISTSTAMDHWGQGTTVT
VL: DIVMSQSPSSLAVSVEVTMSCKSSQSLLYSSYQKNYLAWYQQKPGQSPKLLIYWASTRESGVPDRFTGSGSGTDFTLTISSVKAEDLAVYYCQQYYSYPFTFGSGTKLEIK
notes: also called anti-R405; source: mouse hybridoma; supernatants or ascites fluid
binding result: binds
